# Measured values from the NTF2 design screens of Basanta et al. (2020).
# Test: protease stability score; higher = more stable; yeast display proteolysis, trypsin and chymotrypsin;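 further: log10 excess protease needed over predicted unfolded state with 0 meaning unfolded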
row,Sequence,protease stability score
1,DEELQKMVEQFFRNEQNGNRDQLKRLADPNVNFQYGDKTIHGMDTFLQRQRERHEDSRQDFKSIDMKVQGDKVRVTAVLEQETDGQPERFRREMTVEAHNGKIKSVNVQHSQ,-0.082
2,DDHAADVMRKWFEALSSGNPDQAKKNLDPNAKVQIGDKTLHGREQVSQHVREQKEEIRFEIQSVDVRKEPGQVTVTMVYVSHFNGQPRRDTDTFFADVHGDKIKSVHIRVDEKQKQRERD,-0.495
3,DEEDVKKILDKVLKMAVKGDKDQVKTMLKPDVEYIHIDEKRQGQQVAEQVHKEIKKVGARAEIKEKTVEGDKAKVTYQFKVNGRTVEVTAEVEAKDGRVDKWQVHISDEAKEMMTKG,-0.289
4,DEEALKLLESLMEAVKTNNEERLKSLVDPNAHFQYGDKTLHGMEDWAKEVVRRMREIHVEWEWHTWSVHNGQIVVDVHARLEINGRPVHWKERIIVELENGKVKSMVFQISEEEKKHIDG,1.6
5,DEELDKRIVDALHAIQKGDERRLRQLFDKNVSFKVGDEEYHGMENYAKDQKRRRDKIRVQLQSVDAKHQGDRAHVDVQRELDINGRPRTVRMIVVAHAKNGRVKNMSMNVDPKEIRELDT,-0.159
6,DEVEKAKNLFDRLVRAFKNNNWKQFSDLADEDVRYVVGDKEWHGREQADEMFREMVEEIDHYDIHVKDIKFHNGKVDLKATASFSVNGKTHRFTVEWRVQMHNGHLRVKQVILK,1.25
7,DHEEMEKIAEEIIDILRTNDPDQMERLADENVRVRIGDKEVHGRESVSHAAQQLHDRVDHFDLKSWRRNGDKFQFEFVEHFNGQSRNVQVEMRFENGKIRHIVYTSR,0.226
8,DEEKQAEDFFKEQYEIFRTGDQNREKDMVDPNANVNVGEYRYHGSKDLMKLMRQLRERVDHVQVTLRSINVKNGKAFIHVEEKFKVNGRVDTDRYVIVLSNHNGKWLLVTIQRG,0.749
9,DDEENKKINEQLKTGDPQTFVDQADENARFRIGDKDFQGREDAKKIADLRKNRVDHIRYREVHFEGDKFVLDAVATFNGRRIKFVVHVTFHNGRLKYYRIKVTNEEVRRQLDELNS,0.8
10,DEEAQKHIQQMFHAIDHGNPEKVKELADPNVNIEVGDKRYHGMDTWVREIEKTKKEMRVSVEHVKVDDRNGRAKIDVIMNNEVNGKPVRDRKTATADVHNGKIKSLQYQFSEDQKKKDEG,-0.472
11,DESQHQSLAKNLVRIFEEGDEDDVRKLADKDARLEVGDHELRGREQVAKFYKRVRDRIDELEIRDVHVQGERVSVHVVVRYNGRHVDFKINIVAHNGRITRVRVDPDRFRQLHS,1.64
12,DEENLKKVREFLEHLVTGNEREVKHLMDPNAEMEVGDKKYSGTEQLRRLMQELKRHQTNKYDIKDMKVQGNKADLKAKVIERHNGQPDDTEQQFFATMSNGRFKKVSFRTDK,-0.295
13,DEHNNEMARKVLHAWRKGDENRVKRMLDPNARIVIGDKTIHGMEQMQTWVQELKKEITIDLKSVHVQSQGDKANVEFTHKQKDNGKPDSRKVTVIFVFSNGRIKRIQVDDDG,0.033
14,DEDHLHRLVKEMVKVLQQGDPDRFMELADKDATAVIGDKRFHGRTQARKAVKEFTDTVDHIRIKTFNAHGDKVTIVVRLDHNGKNAILRIEFQVDNGRFKEVVFDPDHLQDLRR,0.071
15,DTENVKKATDYVHALNTGDEHRVKELMDPNARIRYGDKEVKGHDEIAKTLKTERDQSRVEFDIKRVEHQGNKVSIDLNFRKNQNGQPRSTKVNITVVFHNGKIKEINIQTDG,1.59
16,DEDEMKNVLELIRVMSKGDEDRIRERADPNVKVNIGDKRLQGREELARQASTEKKKMDIHIRVDSVHVHDGNVLIVYKRENHYNGEPNRDEQRFQAQASNGNLKNMSWRFDEDKKRKIET,-0.038
17,DHDAVRQARELYKVWQTGDPDKVRNMLDPNVRFRIGDKEIRGRESFAEELITQIKQSHVEVRHYSANANGNNVKARANVVIHVNGRPHEFSFIFRARVENGKFKQISVQVDDDLLRKLES,0.548
18,DEEAQKLLDMLRKAEQTGDEDRVRQLADEDVKVRIGDKVIHGREEWARHVRRERNEMRFKIQDLKVDVQGDHLSVKYTAHRDHNGQPQSDTYHYTLQMHNGRIKHLNVTEEK,-0.004
19,DEDQQRKWEDWERHLRQNNEEKLVEMFDPNAKWVIGDKRWHGMEEAASKLATRVKNLHIEIRSMRVKVDGDTVEIDVLVTYTHNGQPSEKREILYIHAHNGEVKKVHFEDRE,0.412
20,DRDEVHHLHELYKAIEDGDDKKAQDLMDENAKARIGDKHFRGMQHFVETLKKEKDHMRVKIDNMRFTERPNRVVVNIEVKRSNNGEPESEVYRAFADAHNGKFVNLVIEHNQ,-0.056
21,DERLLHEFQKNVENNNWDKLSELVDEDAKIKYGDKTITGRESLDRMFTQLKRQVDHVDIESVHIDGDKVHVDLRIRVNGHSVRFIMTAEFSNGRIKSMKIEVTSEEQQDHLNEQLS,1.19
22,DENDVKRVLDKLKDNNWEDLVKLMDKDARVEIGDHTIHGRENVHQWMSTIEKQVDHFQIDTMTVKGDTLDANVRMVVNGRKIVFRLKVSLKNGRITRIRFQATDEEQHQQIRQMLR,1.29
23,DEDALRVFDKLVKAWKNNDEDKMKKLMDPNVKVEYGDKQVHGMDEYLHSMVTRQRQIRVHFRVKDIKTRPGRVVANYEVEEENDGKPHHTKVRVTLKVHNGRVKQAEYDVKP,0.017
24,DEKALQLLQRIMEAWQKGDPQQVVDNIDKDARIHIGDKHLHGREDARRVVEQEMTEARLSFDVKHVSVQGDKVKVSFHAQLDTNGRPKTYRASATMNASNGKAKQMDVKEDK,-0.232
25,DEEEQKVFEKVQDAIRDGDEDTVKKLMDENAKVTIGDKDLHGSDNIARHVHKLHKDMRISIDIKHIDVTGDKIRVHARVEVDKNGKPKHYDVDFTARAKNGKVKTLNYREDS,0.694

row,Sequence,protease stability score
1,DDEEALKVIHHFIEVMMSGDEETARRLADKNVEAHYGDRTYHGSEEAVRALIEWARSVDNMRIDSVTQEGNEVKVHVVAHFDGRRVEVDIVIEAHNGKINFVTINPDDIRRMKQ,0.831
2,DDEHVRRLAEQLFKAMQSGDPDTVESLFDKNARVQIGDKSVSGHEDISKIFHDNWKRVDEFQLRTYDAHNGRVQLRFELHINGRRADITLSIEFRNGKIQEAVFEFRDESVRQQFRT,1.29
3,DEELQENAEHLVKAMNKGDREEISRQVDKNASVEIGDQELHGREDIRRFFHEVHEEMRFHIEIKTVDVKGNEVTVHAEAENDDNGRPQTNEVDIDIKVKNGKITSMRIQYNS,-0.539
4,DDEIWSQIEHLLEIFKTGDEERYREQVDPNAKADVGDKKIHGRERIARHLYHLAKNMTIKREVDSVNIQGNEVSASFEVTVNINGNPIRFTVRVNYNFHNGRLQTFEIDVSEDLTKHMDS,1.9
5,DETKAAQVAAELISAIVHGDTDRALELADKDVRADIGENKVHGREEMHKMVEQYDKSVDHASVKTYKVSGNSVKVNVEVTHNGRKRTVDFTAEAHNGKAKQVTAEVK,-0.768
6,DEHARKQFEDLIRALSTGDPERVAQLVDPNAHFQVGDQTIHGREHLMEDVKRRRDKMRMELHVDHVKVDENHLDAIIRVVQDTNGDPDHKKYRLVAQWQNGRVNNQEMQETS,0.541
7,DHQESAHRLHNTLKTIWSENDPDKYSELIDENVHVDVGDKKFRGRDEAKKLAEHIMRRADHIEIRLTSIDVHGNTIRIVVELNFNHDGTSSSVTVVVVLENHNGNFRVKKIRES,0.017
8,DEQNEAKRLVEKLQSIVKSGDEEEWMKQFDENVKVSVGDKTVHGREDMVKQYQQHVKRADTMELQVNEYSVHNGRVSIRYKMRVDVNGQRHTTEAHVDFRNVNGRFKAQSVNQK,0
9,DEQVLRVLNEYLEDLKRNNEERLRKLADPNVKFQVGDKTLHGMEDAVNHWRHLLDHMELRIDITEVNVSNGRAVVNARASQNVNGRPNDNEVQIVAEAHNGTLKFVEWRFDPDRQRKIDS,0.114
10,EEELERRVEDQFKDWNTGDPDRDREMFDKDATVRVGDKKIKGSSQFRDELEKRRREMEFHVEVKDIQDEPGRVNVTFKFRTNHNGQPKEDTMRFHMTWHNGRIKHMSIHHDG,0.641
11,DDDHARRLAERFIKAFQKGDEERAKDLAPPDVKVHVGDTQYNGREQMKQAVKDFRERVDHLSVETIKVRNGRVEVHATANINGVEVNVVFTFVFRNGKMKSMDLKYRDEEAHRNWTS,1.19
12,DEETTDILNELLRAYQNNDSKRIVELADPNASANIGDKQYHGMEDAARTQVKRMRQIHVEIKHVSSDNQGEKIELEMRFVDNHNGKPEQSTRNMTVVMKNGKVDKFTIRDDG,0.085
13,DEKFKEAVERFIKALQDNNHKEMKDNADPNVKAQVGDSEVHGMDEMLRQLYKRYQELRVSYKHLSITVRGDKVEIRASVKLVHNGTPTEREVSVEVEAKNGRIKSMRINNTK,0.493
14,DEEDKMTELTSRMIQAVRQNDFHKIVDQFDKNVTFEVGDHRVHGRTQAQEWARHLLRRVDHATVNLKHVEVQGDTARVKMQLILDRNGRRETRTVIIEAEIDGDKVRAKKLSIG,1.66
15,DEKEVKDADKEMERLMKKNDFQHIVDQMDPNAKIIVGDQDLHGKEEAEKVAQEMDKQIDSIEVKSVHAHGDKAVVHFVNHHNGRNKRVVITLRWSNGRIQEMQIQDQ,-0.157
16,DDHAVRMAKTYQKAIQHNDPDKMVDLVDPNAKIHIGDKDIQGREELRRWVKHRIDDINIIIERVSATDKGDKAIVTVDLVENENGRPHNVRFEVTFDFKNGRAQRVTVQESR,-0.088
17,DDEEKKELADEIAQVIRTGDPKRMVEMVDENATAQVGDQKVHGRENIDKMMQNIRRTADHIRIEHVQVHGEEIRIKAKFHINGHTTTWVFSAEVHNGRIQRASLDRR,1
18,EEDLLRKLSKILHQQDTGNEETVEKNADPNARFEVGDHKIHGMDQAAREIASKIREIRQEKRIESVSVHGNKMQIHFTFTQEKNGQPQTRRATMVVVMSNGKIKSMKVQYDK,0.697
19,DDELRHVAERFVQALDEGDPNELKEMADPNARMQVGDKYITGMETFVKHERKKMEKIRIEVVDFKANVNGDKVQVHFDVRFEVNGQPRRYSYVVIFQFRNGRISHVNVQVDPRQLKKNES,1.04
20,DERDEKRLNETAHRLVKTGDPDQWARLADKDVHVRVGDKKWEGREQLRDLLSRIVKNVDTHQVDTVTAKNGRITIRMVLNINGRNLTIWVTMVIHNGKIKEVEVRVRSEKERKKLES,0.981
21,DEDDVDRVRNLIHALNKGNPDDVNNQADENVRFVIGDKTFHGKETLRTRIEEQKSHSRYQVDSVHAEARNGQVEVHVNMTMTENGQPRKNTYEIQARVHNGRVKDFRMTESR,-0.336
22,DETQMKHLAEEFNKAQKRGNEEKLRELIDKDVTMKVGDKEVHGRERVADKMRKMIERADSISIRDVKSQGDRAEIDMEYRVDGRHRVVIVILRFSNGRIVYAEFQSS,1.08
23,DEERVKQLAEKVFKYVIKGDKDEVRKQGKPDVKYKYIDKEYEGPDALEKAVKLVKRLGMKAETKELKVKGNTVRAKFEYRKGDQTMKTEVEVHYEGDVVKEAKVKISDEVKKFVHQG,0.309
24,DEEAHELWKKWQEAFKTGDPEQLHEMADKDARLRIGNKEIHGREKAVKQLVDERKEMHIDYRIRSYKFEGNRLTFTAHANARVNGQPYRYTVKMQFSFSNGRLKELQIRIPEEVMQELRN,0.791
25,DEHIEEVATKHLKAQHTNDPKQFRDLADKDVEVEVGDKNIHGREQNANEQKRRRDEWEFEMKIDHISAHDGRAILRVKINYVVNGKPINVDAVIRLHAHNGTIKELSVQVDPDQMREVKS,1
